The source of these data is the supplement of paper PMC11246515.

The data set is described as follows: total protein half-life in vivo (active degradation + dilution); higher = more stable protein.
The mark [1] stands for this setting: E. coli NCM3722 delta-clpP delta-lon delta-hslV, growth: N-lim chemostat, doubling time 6 h.
The mark [2] stands for this setting: E. coli NCM3722 delta-clpP, growth: N-lim chemostat, doubling time 6 h.
The mark [3] stands for this setting: E. coli NCM3722 delta-hslV, growth: N-lim chemostat, doubling time 6 h.
Where [4] appears, read: E. coli NCM3722 delta-lon, growth: N-lim chemostat, doubling time 6 h.
Where [5] appears, read: E. coli NCM3722 delta-smpB, growth: N-lim chemostat, doubling time 6 h.
The mark [6] stands for this setting: wild type E. coli NCM3722, growth: C-lim chemostat, doubling time 3 h.
Setting [7] is: wild type E. coli NCM3722, growth: C-lim chemostat, doubling time 6 h.
Setting [8] is: wild type E. coli NCM3722, growth: C-lim chemostat, doubling time 12 h.
Where [9] appears, read: wild type E. coli NCM3722, growth: N-lim chemostat, doubling time 6 h.
Setting [10] is: wild type E. coli NCM3722, growth: N-lim chemostat, doubling time 12 h.
Setting [11] is: wild type E. coli NCM3722, growth: P-lim chemostat, doubling time 6 h.
Where [12] appears, read: wild type E. coli NCM3722, growth: P-lim chemostat, doubling time 12 h.

± gives the standard deviation of the averaged measurements.

Consider “MAISIKTPEDIEKMRVAGRLAAEVLEMIEPYVKPGVSTGELDRICNDYIVNEQHAVSACLGYHGYPKSVCISINEVVCHGIPDDAKLLKDGDIVNIDVTVIKDGFHGDTSKMFIVGKPTIMGERLCRITQESLYLALRMVKPGINLREIGAAIQKFVEAEGFSVVREYCGHGIGRGFHEEPQVLHYDSRETNVVLKPGMTFTIEPMVNAGKKEIRTMKDGWTVKTKDRSLSAQYEHTIVVTDNGCEILTLRKDDTIPAIISHDE [P0AE18]”, for which the “total protein half-life in vivo” value was found to be 5.22 ± 1 h under setting [1]; 4.545 ± 0.041 h under setting [2]; 4.71 ± 0.14 h under setting [3]; 5.3 ± 0.74 h under setting [4]; 4.36 ± 0.17 h under setting [5]; 3.53 ± 0.17 h under setting [6]. For the same sequence, the “total protein half-life in vivo” value runs as follows: under setting [7], 5.52 ± 0.18 h; under setting [8], 10.4 ± 0.64 h; under setting [9], 4.42 ± 0.58 h; under setting [10], 6.93 ± 0.49 h; under setting [11], 6.04 ± 0.15 h; under setting [12], 12.19 ± 0.095 h.
As for “MKTNIKVFTSTGELTTLGRELGKGGEGAVYDIEEFVDSVAKIYHTPPPALKQDKLAFMAATADAQLLNYVAWPQATLHGGRGGKVIGFMMPKVSGKEPIHMIYSPAHRRQSYPHCAWDFLLYVARNIASSFATVHEHGHVVGDVNQNSFMVGRDSKVVLIDSDSFQINANGTLHLCEVGVSHFTPPELQTLPSFVGFERTENHDNFGLALLIFHVLFGGRHPYSGVPLISDAGNALETDITHFRYAYASDNQRRGLKPPPRSIPLSMLPSDVEAMFQQAFTESGVATGRPTAKAWVAALDSLRQQLKKCIVSAMHVYPAHLTDCPWCALDNQGVIYFIDLGEEVITTGGNFVLAKVWAMVMASVAPPALQLPLPDHFQPTGRPLPLGLLRREYIILLEIALSALSLLLCGLQAEPRYIILVPVLAAIWIIGSLTSKAYKAEVQQRREAFNRAKMDYDHLVRQIQQVGGLEGFIAKRTMLEKMKDEILGLPEEEKRALAALHDTARERQKQKFLEGFFIDVASIPGVGPARKAALRSFGIETAADVTRRGVKQVKGFGDHLTQAVIDWKASCERRFVFRPNEAITPADRQAVMAKMTAKRHRLESALTVGATELQRFRLHAPARTMPLMEPLRQAAEKLAQAQADLSRC”, the “total protein half-life in vivo” value reads like this: under setting [1], 4.54 h; under setting [2], 4.86 h.
Take “MKKKILAFGLISALFCSTPAMADMNRTTKGALLGAGVGLLTGNGVNGVLKGAAVGAGVGAVTEKGRDGKNARKGAKVGAAVGAVTGVLTGNGLEGAIKGAVIGGTGGAILGKMK [Q7DFV3]”: the “total protein half-life in vivo” value by setting is: under setting [3], 1.46 ± 0.28 h; under setting [5], 1.39 h; under setting [6], 1.42 ± 0.11 h; under setting [7], 1.67 h; under setting [9], 1.78 ± 0.36 h; under setting [10], 1.87 h. In addition, the “total protein half-life in vivo” value stood at 2.752 ± 0.007 h under setting [11] and 5.14 ± 0.75 h under setting [12].
Consider “MNPTRYARICEMLARRQPDLTVCMEQVHKPHNVSAIIRTADAVGVHEVHAVWPGSRMRTMASAAAGSNSWVQVKTHRTIGDAVAHLKGQGMQILATHLSDNAVDFREIDYTRPTCILMGQEKTGITQEALALADQDIIIPMIGMVQSLNVSVASALILYEAQRQRQNAGMYLRENSMLPEAEQQRLLFEGGYPVLAKVAKRKGLPYPHVNQQGEIEADADWWATMQAAG [P0AGJ2]”, for which the “total protein half-life in vivo” value reads like this: under setting [2], 5.55 h; under setting [3], 5.14 ± 0.28 h; under setting [4], 5.86 h; under setting [5], 4.84 ± 0.18 h; under setting [6], 2.85 ± 0.62 h; under setting [7], 5.7 ± 0.66 h. For the same sequence, the “total protein half-life in vivo” value runs as follows: under setting [8], 10.7 ± 1.5 h; under setting [9], 5.5 ± 0.66 h; under setting [10], 10 ± 0.54 h; under setting [11], 5.8 ± 0.23 h; under setting [12], 12.5 ± 0.089 h.
In the case of “MGSNIHGISCTANNYLKQAWNDIKNEYEKNQTYSITLFENTLVCFMRLYNELRRKVNEEDTPCLECESLEKEFEEMQNDNDLSLFMRILRTNDTQIYSGVSGGITYTIQYVRDIDIVRVSLPGRASESITDFKGYYWYNFMEYIENINACDDVFSEYCFDDENISVQPERINTPGISDLDSDIDLSGISFIQRETNQALGLKYAPVDGDGYCLLRAILVLKQHDYSWALVSYKMQKEVYNEFIKMVDKKTIEALVDTAFYNLREDVKTLFGVDLQSDNQIQGQSSLMSWSFLFFKKQFIDSCLNNEKCILHLPEFIFNDNKNLLALDTDTSDRIKAVKNFLVVLSDSICSLFIVNSNVASISLGNESFSTDEDLEYGYLMNTGNHYDVYLPPELFAQAYKLNNKEMNAQLDYLNRYAI”, the “total protein half-life in vivo” value under setting [4] was 5.18 h.
Turning to “MQRETVWLVEDEQGIADTLVYMLQQEGFAVEVFERGLPVLDKARKQVPDVMILDVGLPDISGFELCRQLLALHPALPVLFLTARSEEVDRLLGLEIGADDYVAKPFSPREVCARVRTLLRRVKKFSTPSPVIRIGHFELNEPAAQISWFDTPLALTRYEFLLLKTLLKSPGRVWSRQQLMDSVWEDAQDTYDRTVDTHIKTLRAKLRAINPDLSPINTHRGMGYSLRGL”, the “total protein half-life in vivo” value by setting is: under setting [1], 5.69 ± 1.5 h; under setting [2], 4.02 ± 0.41 h; under setting [3], 3.55 h; under setting [4], 4.49 ± 0.45 h; under setting [5], 3.92 h; under setting [6], 2.74 ± 0.18 h. Besides, the “total protein half-life in vivo” value came to 4.86 ± 0.057 h under setting [7]; 11.5 ± 3.6 h under setting [8]; 3.99 h under setting [9]; 6.73 ± 0.16 h under setting [10]; 4.04 h under setting [11]; 7.89 ± 0.58 h under setting [12].
On to “MVAPIPAKRGRKPAVATAPATGQVQSLTRGLKLLEWIAESNGSVALTELAQQAGLPNSTTHRLLTTMQQQGFVRQVGELGHWAIGAHAFMVGSSFLQSRNLLAIVHPILRNLMEESGETVNMAVLDQSDHEAIIIDQVQCTHLMRMSAPIGGKLPMHASGAGKAFLAQLSEEQVTKLLHRKGLHAYTHATLVSPVHLKEDLAQTRKRGYSFDDEEHALGLRCLAACIFDEHREPFAAISISGPISRITDDRVTEFGAMVIKAAKEVTLAYGGMR”, for which the “total protein half-life in vivo” value is, setting by setting: under setting [1], 5.87 ± 0.33 h; under setting [2], 5.93 ± 0.11 h; under setting [3], 5.33 ± 0.38 h; under setting [4], 5.45 ± 0.43 h; under setting [5], 5.348 ± 0.028 h; under setting [6], 2.89 ± 0.17 h. In addition, the “total protein half-life in vivo” value was 5.43 ± 0.46 h under setting [7]; 9.91 ± 0.97 h under setting [8]; 5.51 ± 0.18 h under setting [9]; 9.96 ± 1.1 h under setting [10]; 4.91 ± 0.12 h under setting [11]; 9.56 ± 0.21 h under setting [12].
